Where two headings read alike, the source gives them in different places.

The values that follow come from article PMC8599795.

Assay in all cases: SPR
(In general: SPR reads the build-up and loss of mass on a sensor chip optically.)

Series [1] has as its target T1, DEN3-NS1 (NAD3) (Dengue virus 3 Sri Lanka D3/H/IMTSSA-SRI/2000/1266) (UniProt Q6YMS4).
T1 sequence: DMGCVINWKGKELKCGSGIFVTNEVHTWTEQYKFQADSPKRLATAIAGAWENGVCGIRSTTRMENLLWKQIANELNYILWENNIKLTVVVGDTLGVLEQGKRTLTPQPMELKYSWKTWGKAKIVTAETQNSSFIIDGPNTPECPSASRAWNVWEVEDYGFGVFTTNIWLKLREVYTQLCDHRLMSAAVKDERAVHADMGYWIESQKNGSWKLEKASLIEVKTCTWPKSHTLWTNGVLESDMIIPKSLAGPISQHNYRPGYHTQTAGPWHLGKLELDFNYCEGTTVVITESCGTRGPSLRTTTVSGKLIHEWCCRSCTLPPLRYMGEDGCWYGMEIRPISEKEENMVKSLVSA

Series [2] has as its target T2, DEN4-NS1 (NAD4) (Dengue virus 4 Dominica/814669/1981) (UniProt P09866).
T2 sequence: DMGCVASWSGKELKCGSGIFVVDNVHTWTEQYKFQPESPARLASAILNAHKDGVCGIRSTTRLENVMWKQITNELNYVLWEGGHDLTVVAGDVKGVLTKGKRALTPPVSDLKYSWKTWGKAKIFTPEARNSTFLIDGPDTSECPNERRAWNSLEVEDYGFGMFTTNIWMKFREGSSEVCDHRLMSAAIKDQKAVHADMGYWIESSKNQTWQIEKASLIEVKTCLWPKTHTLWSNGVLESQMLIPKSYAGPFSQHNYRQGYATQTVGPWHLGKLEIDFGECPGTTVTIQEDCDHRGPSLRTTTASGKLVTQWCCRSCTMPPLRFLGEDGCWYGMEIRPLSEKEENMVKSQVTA

Series [3] has as its target T3, DEN2-NS1 (NAD2) (Dengue virus 2 Thailand/16681/84) (UniProt P29990).
T3 sequence: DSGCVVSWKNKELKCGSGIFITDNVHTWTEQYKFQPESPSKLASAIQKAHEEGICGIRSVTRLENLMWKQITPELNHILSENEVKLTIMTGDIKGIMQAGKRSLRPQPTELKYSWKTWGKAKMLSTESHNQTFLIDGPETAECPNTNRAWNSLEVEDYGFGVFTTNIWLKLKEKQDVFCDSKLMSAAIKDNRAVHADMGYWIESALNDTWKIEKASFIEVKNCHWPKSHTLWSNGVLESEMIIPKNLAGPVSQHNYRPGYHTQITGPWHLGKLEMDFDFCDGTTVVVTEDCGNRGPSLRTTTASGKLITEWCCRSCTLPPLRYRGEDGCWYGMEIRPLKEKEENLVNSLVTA
To be noted: N1,N2 = Ds.

A word on the Kd: it is the free concentration of one partner at which half of the binding sites on the other are occupied at equilibrium, for simple one-to-one binding. Low values mean higher affinity, high ones lower affinity. As to “CCGCTTGTCATCTAACCTGGCCATGTGGTACTGTAACGGCTGACAAGCGGCGCGTAGCG [Cont-D3-2-59h]”, the Kd in series [1] came to 190000 pM. For “CCGCTTGTCATCTANCCTGGCCNTGTGGTACTGTAACGGCTGACAAGCGGCGCGTAGCG [D3-2-59h (AptD3)]”, in series [1] (N = Ds), the dissociation constant (Kd) turned out to be 57 pM.

The sequence “CGGCGGAGACGTAACGCATATCAAATCAAAACAGCTTAGGGTCCGCCGCGCGTAGCG [Cont-D4-3-57h]” yielded an equilibrium dissociation constant (Kd) in series [2] of 2000 pM. Regarding “CGGCGGAGACGTAACGCNTATCAAATCNAAACAGCTTAGGGTCCGCCGCGCGTAGCG [D4-3-57h (AptD4)]”, in series [2] (N = Ds), the equilibrium dissociation constant (Kd) was found to be 30 pM. Sequence “CTCCGCTGTCAAACGGNTATCACGGCNACACACCTGCGGACAGCGGAGCGCGTAGCG [D4-1-57h]” yielded an equilibrium dissociation constant (Kd) in series [2] (N = Ds) of 29 pM.

“GACGGTCTACTGGTCCGNCTGGGAACAAGNGGCGGGAGGGANGGGTGTGGGTGCGACAAGCGGAGTAGTTAGACCGTCCGCGTAGCG [D2-1d-87h]” gave an equilibrium dissociation constant (Kd) in series [3] (N3 = diol-Pa) of 105 pM. The sequence “GGCTGGTCCGNCTGGGAACAAGNGGCGGGAGGGANGGGTGTGGGTGCGACAAGCGGACCAGCCCGCGTAGCG [D2-1d-72h (AptD2)]” had a dissociation constant Kd in series [3] (N3 = diol-Pa) of 104 pM.

Turning to “TGATATGGTCTACTGAAGTGTTGTCATCTANCCTGGCCNTGTGGTACTGTAACGGCTGACAAGCGGAGTAGTTAGACC [D3-2-78]”, the dissociation constant (Kd) in series [1] (N = Ds) amounted to 41 pM. In series [2] (N = Ds), “TGATATGGTCTACTGGAGGAGACGTAACGCNTATCAAATCNAAACAGCTTAGGGTCCGACAAGCGGAGTAGTTAGACC [D4-3-78]” showed a Kd of 34 pM. The same measure, in the same setting: the value for “TGATATGGTCTACTGGTCTCAACGGTTGTCAAACGGNTATCACGGCNACACACCTGCGGACAAGCGGAGTAGTTAGACC [D4-1-78]” was 42 pM. In turn, “TTTTCGCACTCCATGATATGGTCTACTGGTCCGNCTGGGAACAAGNGGCGGGAGGGANGGGTGTGGGTGCGACAAGCGGAGTAGTTAGACCGTCAAA [D2-1d-97]” came in with a Kd in series [3] (N3 = diol-Pa) of 114 pM.

For the sequence “TTTTCGCACTCCATGATATGGTCTACTGGTCCGNCTGGGAACAAGNGGCGGGAGGGANGGGTGTGGGTGCGACAAGCGGAGTAGTTAGACCGTCAAA [D2-1y-96]”, the dissociation constant (Kd) in series [3] (N3 = diol-Px) worked out at 41 pM.
